The values below come from paper PMC4663176 (Insect biochemistry and molecular biology, 2015).

Series [1] deals with T1, Arylalkylamine N-acyltransferase like 2 (AANATL2) (Drosophila melanogaster, UniProt Q9VMG0).
T1 sequence (Q9VMG0 1-216): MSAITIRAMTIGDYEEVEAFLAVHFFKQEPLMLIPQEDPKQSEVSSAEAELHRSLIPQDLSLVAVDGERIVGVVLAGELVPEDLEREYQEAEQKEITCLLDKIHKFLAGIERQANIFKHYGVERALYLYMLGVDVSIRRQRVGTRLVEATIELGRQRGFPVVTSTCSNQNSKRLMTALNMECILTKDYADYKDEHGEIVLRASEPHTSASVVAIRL
Put plainly: dead-end inhibition kinetics, DTNB assay of CoA release, purified enzyme. It is filed as biochemical.

In series [2] the target is T1, Arylalkylamine N-acyltransferase like 2 (AANATL2). Described as above. It counts as biochemical. This is another data set of the same source.
Substrate in series [3]: NCCCCc1ccccc1
Nature of the series: steady-state kinetics. It is filed as biochemical, Drosophila melanogaster. The note with it: acetyl-CoA; pH 8.0.

Substrate in series [4]: COc1ccc(CCN)cc1
Put plainly: steady-state kinetics. It counts as biochemical, Drosophila melanogaster. The note with it: acetyl-CoA; pH 8.0.

Substrate in series [5]: NCCc1c[nH]c2ccccc12
Nature of the series: steady-state kinetics. It counts as biochemical, Drosophila melanogaster. The note with it: acetyl-CoA; pH 8.0.

Substrate in series [6]: NCCc1c[nH]c2ccc(OCc3ccccc3)cc12
Put plainly: steady-state kinetics. It is filed as biochemical, Drosophila melanogaster. The note with it: acetyl-CoA; pH 8.0.

Substrate in series [7]: CC(CN)c1ccccc1
Nature of the series: steady-state kinetics. It is filed as biochemical, Drosophila melanogaster. The note with it: acetyl-CoA; pH 8.0.

Substrate in series [8]: NCCc1cccc(C(F)(F)F)c1
Put plainly: purified protein. The note with it: acetyl-CoA; pH 8.0.

Substrate in series [9]: CC(=O)SCCNC(=O)CCNC(=O)[C@H](O)C(C)(C)COP(=O)(O)OP(=O)(O)OC[C@H]1O[C@@H](n2cnc3c(N)ncnc32)[C@H](O)[C@@H]1OP(=O)(O)O
Put plainly: purified protein. The note with it: acetyl-CoA binds first in an ordered sequential mechanism.

Read-outs that look alike come from different tables or passages of the source.

In the case of `CCCCCCCC/C=C\CCCCCCCC(=O)SCCNC(=O)CCNC(=O)[C@H](O)C(C)(C)COP(=O)(O)OP(=O)(O)OC[C@H]1O[C@@H](n2cnc3c(N)ncnc32)[C@H](O)[C@@H]1OP(=O)(O)O` [oleoyl-CoA], the Ki (commonly a measure of affinity in units of concentration, obtained from inhibition or displacement) in [1] came to 0.18 ± 0.03 µM.
In the case of `OCCc1ccc(O)cc1` [tyrosol], the inhibition constant (Ki) in series [2] is 52 ± 9 µM.

B1: Arylalkylamine N-acyltransferase like 2 (AANATL2) (Drosophila melanogaster) (protein)
chain: T1 sequence (Q9VMG0 1-216)
On to B1, for which the Michaelis constant (Km) (commonly the substrate concentration at which the rate is half of its maximum) in series [3] is 9.5 ± 0.4 µM; in series [4] it was 10 ± 2 µM; in series [5], 14 ± 3 µM; in [6], 8 ± 1 µM; in series [7], 9 ± 1 µM; in series [8], 10 ± 2 µM. Moreover, the Km in [9] came to 5 ± 1 µM. Moreover, the turnover number (kcat) (usually the number of substrate molecules converted per active site and unit of time at saturation) in series [3] was 1 ± 0.02 s⁻¹; in series [4], 3.7 ± 0.1 s⁻¹; in series [5], 4.3 ± 0.3 s⁻¹; in series [6], 2.8 ± 0.1 s⁻¹; in series [7], 2.9 ± 0.1 s⁻¹; in series [8], 4.5 ± 0.2 s⁻¹. The kcat in series [9] amounted to 1.6 s⁻¹. Besides, the specificity constant (kcat/Km) (in general, the second-order rate constant that governs catalysis at low substrate concentration) in series [3] was determined as 110000 ± 5000 M⁻¹ s⁻¹; in series [4], 370000 ± 60000 M⁻¹ s⁻¹; in series [5], 310000 ± 60000 M⁻¹ s⁻¹; in series [6], 330000 ± 40000 M⁻¹ s⁻¹; in series [7], 320000 ± 40000 M⁻¹ s⁻¹; in [8], 440000 ± 70000 M⁻¹ s⁻¹. Moreover, in series [9], the kcat/Km worked out at 310000 M⁻¹ s⁻¹.
